Measurements published in patent US20240392013A1, “IL1RAP ANTIBODIES AND USES THEREOF” (STELEXIS THERAPEUTICS, LLC, priority 2021, published 2024).
Changes are numbered by the printed parent chain. One block for each molecule: values may come before it.

How the values were obtained:
[1] = test system: cyIL1RAP; experiment: Kinetics of IL1RAP mAbs by Octet, cynomolgus IL1RAP; assay type: binding
Experimental: (§1) Antibodies were diluted in kinetics buffer (0.1% BSA, 0.02% Tween-20 and 0.05% NaN3 in PBS) and loaded onto 16 channel anti-mouse IgG Fc capture sensors (AMC, Cat #2001073; Sartorius, Göttingen, Germany). Human, huIL1RAP-His (Sino Biological, lot: MB08MA1301), and monkey, cyIL1RAP-His (Lake Pharma, NY, USA; lot:16205819371) proteins were titrated starting from the highest concentration of 100 nM and followed by 50 nM and 25 nM. Purified antibodies were loaded at 5 μg/ml in kinetics buffer. The experimental parameters selected to determine the kinetic constants were Baseline for 60 s, Loading of antibody to sensor for 180 s, Association of analyte to antibody for 120 s, Dissociation for 1200 s and Regeneration in 10 mM Glycine pH 1.7 for 4×30 s.
(§2) Regeneration cycle tracking was selected for 12 cycles. Binding to human and cynomolgus IL1RAP was measured and KD (M) kinetics were calculated. Also, the disassociation rate (Kdis) (1/s) and association rate (Kon) (1/Ms) kinetics were calculated (data not shown).

[2] = molecular target: T1, IL1R1/IL1β/IL1RAP complex (Homo sapiens, UniProt Q9NPH3); experiment: Blocking of IL1R1/IL1β/IL1RAP complex formation, cell-free ELISA; assay type: biochemical; conditions: FIG. 4
T1 construct: extracellular domain Fc-tagged, Cat #10121-H02H; Fc; purchased Sino Biological 10121-H02H (IL1RAP-Fc); 10126-H08H (IL1R1-His); 10139-HNAE (IL1β)
T1 sequence (Q9NPH3 21-367 limits assumed): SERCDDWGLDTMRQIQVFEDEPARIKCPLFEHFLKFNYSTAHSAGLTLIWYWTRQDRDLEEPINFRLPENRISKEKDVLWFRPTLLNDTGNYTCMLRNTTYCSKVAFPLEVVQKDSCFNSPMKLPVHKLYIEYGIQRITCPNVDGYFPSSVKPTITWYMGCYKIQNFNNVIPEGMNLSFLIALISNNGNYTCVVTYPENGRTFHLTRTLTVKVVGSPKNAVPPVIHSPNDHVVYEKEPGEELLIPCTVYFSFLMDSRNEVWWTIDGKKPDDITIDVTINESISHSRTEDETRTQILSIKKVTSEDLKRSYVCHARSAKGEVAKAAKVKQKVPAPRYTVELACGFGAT
Experimental: High-binding 96-well plates were coated with IL1RAP-Fc protein (Sino Biological, Cat #10121-H02H) at concentration of 4 µg/ml and incubated overnight at 4° C. After 3× washes with 0.05% Tween-20 in PBS, pH 7.5, plates were blocked with 1% BSA in PBS for 1 hour at room temperature. Following, wells were incubated with each antibody at concentration of 50 nM for 1 hour at room temperature. Plates were then washed 3× and wells were incubated with premixed complex of IL1R1-His protein (Sino Biological, Cat #10126-H08H) at concentration of […] and IL1β cytokine (Sino Biological, Cat #10139-HNAE) at concentration of […] 1 hour at room temperature. IL1R1/IL1β complex was preincubated in assay buffer (1% BSA in PBS, pH 7.5) for 20 min at room temperature. After 3× washes, plates were incubated with anti-His HRP detection antibody (Medna, Cat #D8212, […]) for 1 hour at room temperature. Following 5× washes, SuperPico chemiluminescent substrate was applied to wells and signal was read on Spectramax M5.

[3] = test system: A549 cells; experiment: IL-1-induced IL-6 secretion, ELISA; assay type: cell-based, human; conditions: 66 nM-2 μM, 72 hours, dose-dependent
Experimental: Methods: A549 cells were seeded on CytoOne® 24 well plate (USA Scientific, Cat #CC7682-7524) at 0.05×10^6/mL and were kept at 37° C./5% CO2 in humified incubator. After 6 hours, the cells were treated with IL-1β (0.5 ng/ml) in the presence or absence of IL1RAP antibodies at 66 nM, 200 nM, 666 nM and 2 μM at 37° C./5% CO2 in humified incubator. Cell culture media was collected after 72 hours and was centrifuged at 4° C. for 5 min. All supernatant samples were analyzed in triplicates. Human IL-6 microplate (R&D Part #890045) was incubated for 2 hours at room temperature with standard, control, or supernatant samples (100 μl) diluted in assay diluent RD1W (100 μl). Samples were aspirated and washed with wash buffer (R&D, cat #895003) four times. Human IL-6 conjugate (200p1) (R&D, cat #890046) was added to each well and incubated for 2 hours at room temperature. Aspiration/wash step was repeated as stated above. Equal volume of substrate color reagent A (R&D, cat #895000) and B (R&D, cat #895001) were mixed, and the substrate solution (200 μl) was added to each well and incubated for 20 minutes at room temperature in the dark. Stop solution (50p1) (R&D, cat #895032) was added to each well and optical density was determined at 450 nm by Cytation™ Cell Imaging Multi-Mode Reader (BioTek).

[4] = test system: A431 cells; experiment: IL-36-induced IL-8 secretion, ELISA; assay type: cell-based, human; conditions: IL-36γ, 72 hours, dose-dependent
Experimental: Methods: A431 cells were seeded on CytoOne® 24 well plate (USA Scientific, Cat #CC7682-7524) at 0.05×10^6/mL and were kept at 37° C./5% CO2 in humified incubator. After 6 hours the cells were treated with IL-36γ (0.5 ng/ml) in the presence or absence of IL1RAP antibodies at 66 nM, 200 nM, 666 nM and […]. Cell culture media was collected after 72 hours and was centrifuged at 4° C. for 5 min. All supernatant samples were analyzed in triplicates. Human IL-8 microplate (R&D cat #890462) was incubated for 2 hours at room temperature with standard, control, or supernatant samples (1001) diluted in assay Diluent RD1-85 (1001). Samples were aspirated and washed with wash buffer (R&D Part #895003) for four times. Human IL-8 conjugate (200 μl) (R&D cat #890465) was added to each well and incubated for 2 hours at room temperature. Aspiration/wash step was repeated as stated above. Equal volume of substrate color reagent A (R&D, cat #895000) and B (R&D, cat #895001) were mixed, and the substrate solution (200 ul) was added to each well and incubated for 20 minutes at room temperature in the dark. Stop solution (501) (R&D, cat #895032) was added to each well and optical density of each well was determined at 450 nm with Cytation™ Cell Imaging Multi-Mode Reader (BioTek).

[5] = molecular target: T2, hIL1RAP (Homo sapiens, UniProt Q9NPH3); experiment: Kinetics of IL1RAP mAbs by Octet, human IL1RAP; assay type: binding; set-up: extracellular domain His-tagged, Cat #10121-H08H; His; purchased Sino Biological lot MB08MA1301 (catalogue number not given)
T2 sequence (Q9NPH3 21-367 limits assumed): T1 sequence (Q9NPH3 21-367 limits assumed)
Experimental: as §1, §2

- hIL1RAP kdis(1/s) [5]: 0.000287 s⁻¹
- hIL1RAP kon(1/Ms) [5]: 307700 M⁻¹ s⁻¹
B1: 74804_12A21B: anti-IL1RAP mAb; VH SEQ ID NO:6, VL SEQ ID NO:23, κ light chain (antibody, V domains shown)
VH: QVQLLQSGAEVKKPGSSVKVSCKASGGTFSIYAIDWVRQAPGQGLEWMGGIIPIFGTANSAQKFQGRVTITADKSTSTAYMELSSLRSEDTAVYYCARNGATSDAFDMWGQGTMVTVSS
VL: EIVLTQSPGTLSLSPGERATLSCRASLSVSSNYLAWFQQRPGQAPRLLIHGVSRRATGIPDRFSGSGSGTDFTLTISRLEPEDFAVYYCQQYGSSPLTFGGGTKVEIK
modifications: 74804_12A21B VH and 74804_29D13A VH; 74804_12A21B VL
- cyIL1RAP kdis(1/s) [1]: 0.000441 s⁻¹
- cyIL1RAP kon(1/Ms) [1]: 342200 M⁻¹ s⁻¹
- Blocking of IL1R1/IL1β/IL1RAP complex formation [2]: block IL1R1/IL1β/IL1RAP complex formation in a dose dependent manner
- IL-1-induced IL-6 secretion [3]: inhibited
- IL-36-induced IL-8 secretion [4]: inhibited

- hIL1RAP kdis(1/s) [5]: 0.000149 s⁻¹
- hIL1RAP kon(1/Ms) [5]: 350200 M⁻¹ s⁻¹
B2: 74804_43F04A: anti-IL1RAP mAb; VH SEQ ID NO:7, VL SEQ ID NO:22, κ light chain (antibody, V domains shown)
VH: B1 VH with A58E, K63N, V68I, S77N, M108I, S118F
VL: B1 VL with H50Y
modifications: 74804_43F04A VH; 74804_07K10A VL, 74804_29D13A VL and 74804_43F04A VL
- cyIL1RAP kdis(1/s) [1]: 0.0004 s⁻¹
- cyIL1RAP kon(1/Ms) [1]: 412100 M⁻¹ s⁻¹
- Blocking of IL1R1/IL1β/IL1RAP complex formation [2]: block IL1R1/IL1β/IL1RAP complex formation in a dose dependent manner
- IL-1-induced IL-6 secretion [3]: inhibited
- IL-36-induced IL-8 secretion [4]: inhibited
